Data from patent US20090104170A1.

Target: MHC class 1 molecules on the target cells
Experiment: cell-based or functional assay

percent lysis of Volle EBV-LCLs by SKEM NK lines 2, 6 and 7 at a 10:1 E/T ratio after preculture of the targets with W6/32: > 80%
Substance: monoclonal antibody W6/32 (anti-pan class 1 MHC monoclonal antibody; DAKO)
